# Laboratory results: PMC10383791, “Evaluation of [^18F]AlF-EMP-105 for Molecular Imaging of C-Met” (Pharmaceutics, 2023)
# “Also recorded” adds a separate entry of the source. Bridge positions count the residues as written; N and C are the ends. Ends that are not written are not given here. Peptide text beside a SMILES is read from it. * marks the point of attachment. NOTA = O=C(O)CN1CCN(CC(=O)O)CCN(CC(=O)*)CC1
# Columns and labels:
# HEPG2a [1] = test: Flow cytometry uptake of EMI-137 (c-Met expression level); type: cell-based; settings: HEPG2a (negative control), 50 nM, 1 h, 37 °C
# Method: (§1) H1975 (non-small cell lung cancer), HEPG2a (hepatocellular carcinoma), HT29 (colorectal cancer) were purchased from ATCC. OE21 (oesophageal squamous cell carcinoma) was obtained from Prof George Hanna. H1975 and OE21 cells were maintained in RPMI-1640 media (Sigma-Aldrich) supplemented with 10% fetal calf serum (Sigma-Aldrich), 1% L-glutamine, and 2% penicillin/streptomycin (Sigma-Aldrich). HEPG2a and HT29 cells were cultured in DMEM (Sigma-Aldrich) containing 10% fetal calf serum, 1% L-glutamine, and 2% penicillin/streptomycin. All cell lines were cultured at 37 °C and 5% CO2.
# (§2) Approximately 500,000 cells were seeded in 6-well plates and cultured for 24 h at 37 °C and 5% CO2. Cells were washed with warm PBS and incubated with 50 nM EMI-137 for 1 h at 37 °C and 5% CO2. Subsequently, cells were washed with ice-cold PBS three times prior to sample acquisition via FACS Canto flow cytometer (Becton Dickinson Immunocytometry Systems, Franklin Lakes, NJ, USA) with FACS Diva Software version 4.0.2. The obtained data were analysed using FlowJo software v7.6 (FlowJo, LLC, Ashland, OR, USA). Unstained controls were used to define gates and adjust fluorescence compensation.
# HT29 [2] = test: as above; type: cell-based; settings: 50 nM, 1 h, 37 °C
# Method: as §1, §2
# H1975 [3] = test: as above; type: cell-based; settings: 50 nM, 1 h, 37 °C
# Method: as §1, §2
# OE21 [4] = test: as above; type: cell-based; settings: 50 nM, 1 h, 37 °C
# Method: as §1, §2
# H1975 cells = test: Internalisation assay of EMI-137 by flow cytometry; type: cell-based
# Method: as §1
# H1975 cells were seeded in a 6-well plate at a seeding density of 500,000 cells/well, 24 h prior to performing internalisation assay. […] Subsequently, cells were washed with ice-cold PBS three times. To determine internalisation levels at 4 °C, surface-bound EMI-137 was removed by washing the cells with 50 mM of glycine prepared in 150 mM NaCl (Sigma) for 5 min followed by three washes with ice-cold PBS. […] Data were presented as mean Fluorescence Intensity (MFI). The internalised fraction was determined by subtracting the surface-bound EMI-137 from total EMI-137. The percentage of internalised fraction was calculated by dividing the amount of internalised EMI-137 by total-bound EMI-137 multiplied by 100%. Unstained controls were used to define gates and adjust fluorescence compensation.
# [5] = Radioactive metabolite analysis in tissues by radio-HPLC; settings: mouse i.v., mean ± s.d., n = 3
# Method: For metabolite analysis, radio-HPLC chromatograms were obtained using an Agilent 1100 system equipped with an in-line posiRAM metabolite detector (Lablogic, Sheffield, UK). The same column and mobile phase were used.
# In female BALB/c mice at 5 and 30 min p.i. of [^18F]AlF-NOTA-EMP-105, four key tissues (blood plasma, liver, kidney and urine) were analysed for radioactive metabolites by radio-HPLC. The retention time of free [^18F]fluoride and the parent compound [^18F]AlF-EMP-105 were determined by injecting a pure sample of each onto the metabolite radio-HPLC system.
# The liver and kidneys were excised, and homogenised in ice cold MeCN:H2O (1 mL, 1:2 v/v) using a Precellys tissue homogeniser fitted with a Cryolys cooling module (Stretton Scientific Ltd., Derbyshire, UK). The homogenate was centrifuged (13,000× g, 5 min), the supernatant was removed, filtered (0.22 µm syringe filter) and diluted in water prior to RP-HPLC analysis. Urine was diluted in water and filtered prior to HPLC analysis. Plasma was obtained from whole blood by centrifugation (2000× g, 10 min) to separate the blood cells from the plasma. Plasma were precipitated with ice cold MeCN:H2O (1 mL, 1:2 v/v), and centrifuged (13,000× g, 5 min) to pellet the proteins. The supernatant was filtered and diluted in water for radio-HPLC analysis. The HPLC injection loop was washed with MeCN:H2O 1:1 v/v (1 mL) and then 5:95 v/v (1 mL) between each injection. The extraction efficiency from each tissue sample was determined by counting the activity (counts per minute, CPM) of a small aliquot (20 µL) of the supernatant of a known volume and the whole protein pellet, in a γ-counter.
# physchem = test: physchem
# Method: (§3) Analytical radio-HPLC chromatograms were obtained using an Agilent 1200 series instrument equipped with a flow-ram detector (Lablogic, Sheffield, UK), and integrated using Laura 6 software (Lablogic, Sheffield, UK). Column: phenomenex Aeris^TM 3.6 µm WIDEPORE C4 200 Å. Mobile phase: 0.1% TFA H2O:MeCN 95:5 v/v to 5:95 v/v, 0.8 mL/min flow rate.
# (§4) A fraction of purified [^18F]AlF-EMP-105 (10 MBq in ~10 µL EtOH) was incubated, respectively, in 1000 µL of EtOH, PBS, RPMI, human serum and EDTA (0.02% in 0.5 mM DPBS) at 37 °C, and analysed by RP-HPLC at 1, 2, 3, and 4 h time points. For stability towards radiolysis, aliquots of >2 GBq of purified [^18F]AlF-EMP-105 eluted from the cartridge in ethanol (75% in 10 mM H3P0_4) or formulated in PBS solution containing 7.5% ethanol and 5 mg/mL (10 mL) of 4-aminobenzoic acid (PABA) as radioprotectant were analysed by RP-HPLC.
# [6] = dynamic PET 60 min, TACs, healthy mice, i.v.
# Method: Female BALB/c mice (6–8 weeks old) were anaesthetized with 2% isoflurane/O2. Imaging was performed using a Siemens Inveon small-animal multimodality PET/CT system (Siemens Medical Solutions USA, Inc., Knoxville, TN, USA). After completion of the CT scan, [^18F]AlF-EMP-105 (4.6 ± 1.2 MBq) was injected intravenously via the lateral tail vein. Dynamic emission scans were acquired in list-mode format for 60 min. Image data were processed as 0.5 mm sinogram bins and 33 time-frames, and reconstructed using the 2D-ordered subsets expectation maximization (2D-OSEM) algorithm with CT-based attenuation correction. The following frame durations were used: 12 × 5 s, 4 × 15 s, 6 × 30 s, and 11 × 300 s. Images were analysed using Inveon Research Workplace software (Siemens Healthcare Molecular Imaging, Knoxville, TN, USA). PET and CT images were co-registered and used to draw 3-dimensional regions of interests (ROIs) over tissues to obtain time–activity curves (TACs). Decay-corrected tissue time versus radioactivity curves (TACs) were generated and normalized to whole-body activity to obtain normalized uptake values (NUVs).
# in vitro = settings: human, human serum
# Method: as §3, §4
# HEPG2a [7] = test: In vitro radioactive uptake with and without EMI-137 blocking; type: cell-based; settings: HEPG2a (negative control); ~0.74 MBq, 60 min, 37 °C; gamma counting; mean ± SEM
# Method: as §1
# (§5) Cells were seeded at appropriate densities (~500,000 cells/well in a 6-well plate) and allowed to attach overnight. On the day of uptake, cells were washed three times with warm PBS and incubated with 1 mL of fresh media containing approximately 0.74 MBq of [^18F]AlF-EMP-105, with or without 100× molar equivalent of EMI-137 (blocking compound), in a humidified condition with 5% CO2 at 37 °C for 60 min. After 60 min of incubation, the cells were washed with ice-cold PBS (3 times), then lysed in 1 mL of RIPA buffer for 10 min on ice. Following this step, radioactivity from 800 µL of lysate from each sample was counted on a WIZARD2® Automatic Gamma Counter. To determine the specificity of uptake, data were expressed as a percentage of radioactivity incorporated into cells, in untreated cells compared to cells blocked with EMI-137.
# HT29 [8] = test: as above; type: cell-based; settings: ~0.74 MBq, 60 min, 37 °C, gamma counting, mean ± SEM
# Method: as §1, §5
# H1975 [9] = test: as above; type: cell-based; settings: ~0.74 MBq, 60 min, 37 °C, gamma counting, mean ± SEM
# Method: as §1, §5
# OE21 [10] = test: as above; type: cell-based; settings: ~0.74 MBq, 60 min, 37 °C, gamma counting, mean ± SEM
# Method: as §1, §5
compound,measurement,setting,value
"AGSCYCSGPPRFECWCYETEGT-Cy5 (also: cyclic, ring closure not given here) [EMI-137]",Fluorescent uptake of EMI-137,HEPG2a [1],low uptake
same,Fluorescent uptake of EMI-137,HT29 [2],High uptakes
same,Fluorescent uptake of EMI-137,H1975 [3],High uptakes
same,Fluorescent uptake of EMI-137,OE21 [4],High uptakes
same,Internalisation of EMI-137,"H1975 cells; 0, 5, 15 and 30 min at 37 °C after 30 min at 4 °C, glycine wash",increased with time
same,Difference in uptake at 37 °C versus 4 °C,"H1975 cells; 50 nM, 30 min",the difference was not significant
"CC(=O)N[C@@H](C)C(=O)NCC(=O)N[C@@H](CO)C(=O)N[C@H]1CSSC[C@@H](C(=O)N[C@@H](Cc2ccc(O)cc2)C(=O)N[C@@H](CCC(=O)O)C(=O)N[C@H](C(=O)N[C@@H](CCC(=O)O)C(=O)NCC(=O)N[C@H](C(=O)NCC(=O)NCC(=O)NCC(=O)N[C@@H](CCCCNC(=O)CN2CCN(CC(=O)O)CCN(CC(=O)O)CC2)C(N)=O)[C@@H](C)O)[C@@H](C)O)NC(=O)[C@H](Cc2c[nH]c3ccccc23)NC(=O)[C@@H]2CSSC[C@H](NC(=O)[C@H](Cc3ccc(O)cc3)NC1=O)C(=O)N[C@@H](CO)C(=O)NCC(=O)N1CCC[C@H]1C(=O)N1CCC[C@H]1C(=O)N[C@@H](CCCNC(=N)N)C(=O)N[C@@H](Cc1ccccc1)C(=O)N[C@@H](CCC(=O)O)C(=O)N2 [[^18F]AlF-EMP-105] (Ac-AGSCYCSGPPRFECWCYETEGTGGGK(NOTA)-NH2; disulfide 4-16, 6-14)",Percentage of [^18F]AlF-EMP-105 Remaining,"[5]; kidney, 5 min p.i.",9.8 ± 12.9%
same,Percentage of [^18F]AlF-EMP-105 Remaining,"[5]; kidney, 30 min p.i.",4.3 ± 4.3%
same,Percentage of [^18F]AlF-EMP-105 Remaining,"[5]; liver, 5 min p.i.",6.2 ± 10.8%
same,Percentage of [^18F]AlF-EMP-105 Remaining,"[5]; liver, 30 min p.i.",0.4 ± 0.7%
same,Percentage of [^18F]AlF-EMP-105 Remaining,"[5]; plasma, 5 min p.i.",98.3 ± 1.1%
same,Percentage of [^18F]AlF-EMP-105 Remaining,"[5]; plasma, 30 min p.i.",93.3 ± 7.4%
same,Percentage of [^18F]AlF-EMP-105 Remaining,"[5]; urine, 30 min p.i.",7.9 ± 9.2%
same,"remaining at 1 h, 9.9 MBq/mL",physchem; EDTA (0.02% in 0.5 mM DPBS),99%
same,"remaining at 2 h, 9.9 MBq/mL",physchem; EDTA (0.02% in 0.5 mM DPBS),99%
same,"remaining at 3 h, 9.9 MBq/mL",physchem; EDTA (0.02% in 0.5 mM DPBS),98%
same,"remaining at 4 h, 9.9 MBq/mL",physchem; EDTA (0.02% in 0.5 mM DPBS),98%
same,"remaining at 1 h, 9.9 MBq/mL",physchem; PBS,98%
same,"remaining at 2 h, 9.9 MBq/mL",physchem; PBS,97%
same,"remaining at 3 h, 9.9 MBq/mL",physchem; PBS,95%
same,"remaining at 4 h, 9.9 MBq/mL",physchem; PBS,95%
same,"remaining at 1 h, 9.9 MBq/mL",physchem; RPMI media,97%
same,"remaining at 2 h, 9.9 MBq/mL",physchem; RPMI media,97%
same,"remaining at 3 h, 9.9 MBq/mL",physchem; RPMI media,97%
same,"remaining at 4 h, 9.9 MBq/mL",physchem; RPMI media,92%
same,"Time at which activity peaked, heart, lung and liver","[6]; heart, lung and liver",1 min
same,"Time at which activity peaked, kidneys",[6]; kidneys,2.5 min
same,"remaining at 1 h, 9.9 MBq/mL",in vitro,99%
same,"remaining at 2 h, 9.9 MBq/mL",in vitro,99%
same,"remaining at 3 h, 9.9 MBq/mL",in vitro,98%
same,"remaining at 4 h, 9.9 MBq/mL",in vitro,97%
same,Change in radioactive uptake when blocked with 100-fold of EMI-137,HEPG2a [7],not significant; also recorded: not observed
same,Change in radioactive uptake when blocked with 100-fold of EMI-137,HT29 [8],significant decrease; also recorded: statistically significant decreases
same,Change in radioactive uptake when blocked with 100-fold of EMI-137,H1975 [9],significant decrease; also recorded: statistically significant decreases
same,Change in radioactive uptake when blocked with 100-fold of EMI-137,OE21 [10],significant decrease; also recorded: statistically significant decreases
